Reference: paper PMC2747663

Key:
[1] = molecular target: full-length ERBB3 (pIND/TRE-based), recombinant and overexpressed in CHO cells (human) (UniProt P21860); experiment: cross-linking
[2] = molecular target: soluble extracellular domains (ECD) of ERBB3, V5 and His6 epitope-tagged (human) (UniProt P21860); experiment: cross-linking

Row | stoichiometry N [1] | stoichiometry N [2] | Substance
1 | 2 | – | full-length ERBB3 (pIND/TRE-based), recombinant and overexpressed in CHO cells (from UniProt P21860 20-1342) (receptor)
2 | – | 2 | soluble extracellular domains (ECD) of ERBB3, V5 and His6 epitope-tagged (from UniProt P21860 20-643) (domain or fragment)
